Key:
purified protein [1] = substrate: CC(=O)SCCNC(=O)CCNC(=O)[C@H](O)C(C)(C)COP(=O)(O)OP(=O)(O)OC[C@H]1O[C@@H](n2cnc3c(N)ncnc32)[C@H](O)[C@@H]1OP(=O)(O)O; assay: purified protein; settings: pH 7.5; 25.0 °C
purified protein [2] = substrate: CC(C)C(=O)C(=O)O; assay: purified protein; settings: pH 7.5; 25.0 °C

B1: MtIPMS (α-isopropylmalate synthase from Mycobacterium tuberculosis) (Mycobacterium tuberculosis H37Rv) (protein)
chain: MTTSESPDAYTESFGAHTIVKPAGPPRVGQPSWNPQRASSMPVNRYRPFAEEVEPIRLRNRTWPDRVIDRAPLWCAVDLRDGNQALIDPMSPARKRRMFDLLVRMGYKEIEVGFPSASQTDFDFVREIIEQGAIPDDVTIQVLTQCRPELIERTFQACSGAPRAIVHFYNSTSILQRRVVFRANRAEVQAIATDGARKCVEQAAKYPGTQWRFEYSPESYTGTELEYAKQVCDAVGEVIAPTPERPIIFNLPATVEMTTPNVYADSIEWMSRNLANRESVILSLHPHNDRGTAVAAAELGFAAGADRIEGCLFGNGERTGNVCLVTLGLNLFSRGVDPQIDFSNIDEIRRTVEYCNQLPVHERHPYGGDLVYTAFSGSHQDAINKGLDAMKLDADAADCDVDDMLWQVPYLPIDPRDVGRTYEAVIRVNSQSGKGGVAYIMKTDHGLSLPRRLQIEFSQVIQKIAEGTAGEGGEVSPKEMWDAFAEEYLAPVRPLERIRQHVDAADDDGGTTSITATVKINGVETEISGSGNGPLAAFVHALADVGFDVAVLDYYEHAMSAGDDAQAAAYVEASVTIASPAQPGEAGRHASDPVTIASPAQPGEAGRHASDPVTSKTVWGVGIAPSITTASLRAVVSAVNRAAR
- Km (purified protein [1]): 42 ± 12 µM
- kcat/Km (purified protein [1]): 80000 ± 20000 M⁻¹ s⁻¹
- Km (purified protein [2]): 6.4 ± 1.4 µM
- kcat/Km (purified protein [2]): 500000 ± 130000 M⁻¹ s⁻¹

From PMC4025573
